Tests used:
[1] = substrate: O=c1[nH]c(=O)c2[nH]c(=O)[nH]c2[nH]1; test: Michaelis-Menten kinetics, MedU_1B7; type: biochemical, Arthrobacter globiformis; settings: other: role: substrate; non-PEGylated; Table 8B; pH 10.5
Description: (§1) Select Arthrobacter globiformis uricase variants MedU_1B7, MedU_5B8, MedU_1C2, MedU_5C9, MedU_5E6, MedU_5E9, and MedU_IF1 were subject to further characterization by comparing their expression yields, Michaelis-Menten kinetics parameters, and thermostability measured by temperatures at which 50% of normal activity was lost determined by heat stress activity assay, with those of the wild type Arthrobacter globiformis uricase. The expression yields were determined as described above in the “Methods” section. The Michaelis-Menten kinetics parameters kcat and KM, and temperatures at which 50% of normal activity was lost (i.e., 50% thermal inactivation temperatures, referred to as TI50 (° C.)) measured by heat stress activity assay were likewise determined using the methods described in Example 1.

[2] = substrate: O=c1[nH]c(=O)c2[nH]c(=O)[nH]c2[nH]1; test: Michaelis-Menten kinetics, MedU_1C2; type: biochemical, Arthrobacter globiformis; settings: other: role: substrate; non-PEGylated; Table 8B; pH 10.5
Description: as §1

Row | Protein | Km [1] [µM] | kcat [1] [s⁻¹] | Km [2] [µM] | kcat [2] [s⁻¹]
1 | Arthrobacter globiformis uricase variant MedU_1B7, A35D/A83G/A145T/A148S/A204G/A213G/I243V/K244S, SEQ ID NO: 77 (Arthrobacter globiformis; … (protein, R49S backbone, 291 aa; pET-26b(+), C-terminal His6, E. coli; non-PEGylated) MTATAETSTGTKVVLGQNQYGKAEVRLVKVTRNTDRHEIQDLNVTSQLSGDFEAAHTAGDNAHVVATDTQKNTVYAFARDGFGTTEEFLLRLGKHFTEGFDWVTGGRWAAQQFFWDRINDHDHAFSRNKSEVRTAVLEISGSEQTIVSGIEGLTVLKSTGSEFHGFPRDKYTTLQETTDRILATDVSARWRYNTVEVDFDAVYGSVRGLLLKGFAETHSLALQQTMYEMGRAVIETHPEIDEVSMSLPNKHHFLVDLQPFGQDNPNEVFYAADRPYGLIEATIQREGSRAD | 440 ± 90 | 3.8 ± 0.2 |  | 
2 | Arthrobacter globiformis uricase variant MedU_1C2, A145T/V195E/I243V/K244S/K250N/Y270H, SEQ ID NO: 80 (Arthrobacter globiformis; … (protein, R49S backbone, 291 aa; pET-26b(+), C-terminal His6, E. coli; non-PEGylated) MTATAETSTGTKVVLGQNQYGKAEVRLVKVTRNTARHEIQDLNVTSQLSGDFEAAHTAGDNAHVVATDTQKNTVYAFARDGFATTEEFLLRLGKHFTEGFDWVTGGRWAAQQFFWDRINDHDHAFSRNKSEVRTAVLEISGSEQTIVAGIEGLTVLKSTGSEFHGFPRDKYTTLQETTDRILATDVSARWRYNTEEVDFDAVYASVRGLLLKAFAETHSLALQQTMYEMGRAVIETHPEIDEVSMSLPNNHHFLVDLQPFGQDNPNEVFHAADRPYGLIEATIQREGSRAD |  |  | 500 ± 90 | 3.4 ± 0.2

— patent publication US20260308536A1, “NOVEL URICASE VARIANTS AND METHODS OF USE THEREOF” (priority 2023, published 2026)
